Data: article PMC9106921 (Nature immunology, 2022)
No end group written: not given here.

Target: T1, recombinant cytoplasmic tail of CD4 (residues 421-458, C422S, C455S) (human, UniProt P01730 421-458, C422S | C455S)
T1 chain (looked up): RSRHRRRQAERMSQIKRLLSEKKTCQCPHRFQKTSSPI
Experiment: NMR titration

## SHPEDDWMENIDVCENCHYPIVPLDGKGT (domain or fragment, human, UniProt P06239 7-35, looked up, cysteine pairing not given here; also: 15N isotope labelling) [recombinant Lck (residues 7-35), 15N-labelled]
  pKa of the pH-dependent disruption of the complex: 4.55 ± 0.1
